# From patent US11819552B2, “Antibody-drug conjugates targeting uPARAP” (RIGSHOSPITALET, priority 2016, dated 2023)
# Entries after “also recorded” stand apart in the source; their conditions may differ.
# T1: uPARAP (Homo sapiens, UniProt Q9UBG0)
# T1 sequence (Q9UBG0 31-1479): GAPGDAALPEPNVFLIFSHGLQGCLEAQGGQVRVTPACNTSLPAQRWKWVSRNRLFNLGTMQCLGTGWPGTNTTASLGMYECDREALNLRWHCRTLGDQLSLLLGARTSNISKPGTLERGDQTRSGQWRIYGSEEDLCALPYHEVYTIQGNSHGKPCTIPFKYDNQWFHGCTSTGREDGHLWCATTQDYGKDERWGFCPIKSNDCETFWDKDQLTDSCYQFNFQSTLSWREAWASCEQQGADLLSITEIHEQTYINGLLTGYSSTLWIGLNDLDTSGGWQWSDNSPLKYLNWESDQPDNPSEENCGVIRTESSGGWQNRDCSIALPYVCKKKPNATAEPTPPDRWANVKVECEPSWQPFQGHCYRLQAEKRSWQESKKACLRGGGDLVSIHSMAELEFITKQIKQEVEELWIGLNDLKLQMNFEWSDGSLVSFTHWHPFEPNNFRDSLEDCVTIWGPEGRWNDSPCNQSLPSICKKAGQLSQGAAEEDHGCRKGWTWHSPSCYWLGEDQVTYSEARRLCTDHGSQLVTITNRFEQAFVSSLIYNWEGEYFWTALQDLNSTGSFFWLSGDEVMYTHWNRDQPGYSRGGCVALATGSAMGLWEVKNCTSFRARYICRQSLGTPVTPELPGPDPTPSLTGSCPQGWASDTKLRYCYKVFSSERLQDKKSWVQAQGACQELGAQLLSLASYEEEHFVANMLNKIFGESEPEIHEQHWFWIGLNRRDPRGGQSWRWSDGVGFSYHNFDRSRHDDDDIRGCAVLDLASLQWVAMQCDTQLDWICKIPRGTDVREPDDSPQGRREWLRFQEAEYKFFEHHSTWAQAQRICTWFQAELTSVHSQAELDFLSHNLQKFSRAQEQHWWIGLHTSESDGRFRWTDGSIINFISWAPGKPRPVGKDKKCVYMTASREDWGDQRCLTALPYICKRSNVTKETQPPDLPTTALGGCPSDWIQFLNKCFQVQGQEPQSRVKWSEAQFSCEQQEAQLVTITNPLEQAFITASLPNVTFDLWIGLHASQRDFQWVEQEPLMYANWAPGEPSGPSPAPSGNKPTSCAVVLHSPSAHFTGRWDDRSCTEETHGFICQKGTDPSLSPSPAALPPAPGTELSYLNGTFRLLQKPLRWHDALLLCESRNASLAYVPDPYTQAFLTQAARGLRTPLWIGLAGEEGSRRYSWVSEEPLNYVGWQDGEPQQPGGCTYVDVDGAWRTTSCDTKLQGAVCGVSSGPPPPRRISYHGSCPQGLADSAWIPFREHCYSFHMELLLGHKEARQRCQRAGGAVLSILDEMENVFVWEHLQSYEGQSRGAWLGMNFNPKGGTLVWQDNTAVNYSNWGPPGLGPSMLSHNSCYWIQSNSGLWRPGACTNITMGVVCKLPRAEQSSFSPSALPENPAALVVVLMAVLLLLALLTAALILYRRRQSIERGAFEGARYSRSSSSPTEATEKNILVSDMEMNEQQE
# T2: soluble recombinant protein consisting of the three N-terminal domains of uPARAP (CysR, FN-II and CTLD-1) (Homo sapiens, UniProt Q9UBG0)
# T2 construct: A soluble recombinant protein consisting of the three n-terminal domains of uPARAP (CysR, FN-II and CTLD-1)
# T2 sequence (Q9UBG0 41-360 limits assumed): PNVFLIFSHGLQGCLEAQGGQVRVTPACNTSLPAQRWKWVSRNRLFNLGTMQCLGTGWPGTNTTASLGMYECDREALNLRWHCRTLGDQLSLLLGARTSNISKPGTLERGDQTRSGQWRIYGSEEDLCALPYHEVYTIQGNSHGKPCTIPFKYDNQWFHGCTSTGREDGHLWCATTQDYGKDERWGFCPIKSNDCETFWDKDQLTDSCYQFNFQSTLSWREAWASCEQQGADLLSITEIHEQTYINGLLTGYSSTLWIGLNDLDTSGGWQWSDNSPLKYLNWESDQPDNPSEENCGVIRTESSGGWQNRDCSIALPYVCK
# B1: mAb 2h9: mouse monoclonal IgG1k anti-uPARAP antibody clone 2.h.9: F12, produced by hybridoma cell culture (protein)
# light: DIQMTQSPASQSASLGESVTITCLASQTIGTWLAWYQQKPGKSPQLLIYAATTLTDGVPSRFSGAGSGTKFSLKISSLQAEDFASYFCQEFFSTPFTFGSGTKLELKRADAAPTVSIFPPSSEQLTSGGASVVCFLNNFYPKDINVKWKIDGGERQNGVLNSWTDQDSKDSTYSMSSTLTLTKDEYERHNSYTCEATHKTSTSPIVKSFNRNEC
# heavy: QVQLQQPGTELVRPGLSVKLSCKASGYTFTSYWMNWVKQRPGQGLEWIGMIHPSNDEKRINQKFKDKATLTVDKFSSTVYMQVSSPTSEDSAVYYCARGGGDYVGDYALDFWGQGTSVTVSSAKTTPPSVYPLAPGSAAQTNSMVTLGCLVKGYFPEPVTVTWNSGSLSSGVHTFPAVLQSDLYTLSSSVTVPSSTWPSETVTCNVAHPASSTKVDKKIVPRDCGCKPCICTVPEVSSVFIFPPKPKDVLTITLTPKVTCVVVDISKDDPEVQFSWFVDDVEVHTAQTQPREEQFNSTFRSVSELPIMHQDWLNGKEFKCRVNSAAFPAPIEKTISKTKGRPKAPQVYTIPPPKEQMAKDKVSLTCMITDFFPEDITVEWQWNGQPAENYKNTQPIMDTDGSYFIYSKLNVQKSNWEAGNTFTCSVLHEGLHNHHTEKSLSHSPGK
# How the values were obtained:
# uPARAP [1] = biological target: T1, uPARAP; test: Antibody reactivity with uPARAP; format: binding; conditions: listed as 2h9
# [2] = biological target: T2, soluble recombinant protein consisting of the three N-terminal domains of uPARAP (CysR, FN-II and CTLD-1); conditions: immobilized 2h9, soluble three-domain protein; Jürgensen et al., 2011; cited from earlier work
# uPARAP [3] = biological target: T1, uPARAP; test: Western blotting of MG63 cell lysate; format: binding; design: endogenous in cells; host or cells: MG63 human osteosarcoma cells; conditions: detergent lysate of uPARAP-positive MG63 human osteosarcoma cells
# Description: For Western blotting, a detergent cell lysate prepared from uPARAP-positive MG63 human osteosarcoma cells was analyzed, using identical concentrations of “2h9 cloned” and “2h9 original” as the primary antibodies. […] No reaction is seen in the absence of primary antibody (negative control).
molecule,measurement,setting,value
B1,Reactivity with human uPARAP,uPARAP [1],reactive against both human and murine uPARAP; also recorded: reacts with both human and mouse uPARAP
same,Binding in BIAcore setup,[2],binds to immobilized 2h9
same,Reactivity in Western blotting,uPARAP [3],react specifically with the uPARAP protein
